How the values were obtained:
[1] = target: 5pGST, recombinant FbsA fragment 5p (one repeat) fused to GST (Streptococcus agalactiae strain COH1); experiment: SPR; BIAcore X; 5pGST or 6pGST (500 nM) captured on immobilized goat anti-GST antibody, GST alone in the reference cell; human Fng flowed at 2.92 nM to 750 nM, 20 µl/min; equilibrium analysis
[2] = target: 6pGST, recombinant FbsA fragment 6p (five repeats) fused to GST (Streptococcus agalactiae strain COH1); experiment: as above
[3] = target: 5pGST, recombinant FbsA fragment 5p (one repeat) fused to GST (Streptococcus agalactiae strain COH1); experiment: ELISA; 5pGST or 6pGST (500 ng/well) coated overnight at 4°C in 0.1 M carbonate buffer, blocked with 2% BSA, increasing amounts of human Fng; detected with mouse anti-human Fng IgG and peroxidase-conjugated rabbit anti-mouse IgG
[4] = target: 6pGST, recombinant FbsA fragment 6p (five repeats) fused to GST (Streptococcus agalactiae strain COH1); experiment: as above

Question: With “Human fibrinogen (from UniProt P02671 36-866; P02675 45-491; P02679 27-453) (complex)” as the substance, how does the Kd [1] read?
Answer: 27.5 nM

Question: What about the Kd [2] of the same substance?
Answer: 23 nM

Question: What about the EC50 [3] of the same substance?
Answer: 31.2 nM

Question: What about the EC50 [4] of the same substance?
Answer: 63 nM

— publication PMC3782484
